Results as given in paper PMC2631437 (Molecular microbiology, 2008).
Where no end group is shown, it is not given here. The star is where a group is joined. FITC = O=C1OC2(c3ccc(O)cc3Oc3cc(O)ccc32)c2ccc(NC(=S)*)cc21

Key:
[1] = target: T1, MotA, full length (wild type) (bacteriophage T4, UniProt P22915 1-211); experiment: NMR titration
T1 sequence (looked up): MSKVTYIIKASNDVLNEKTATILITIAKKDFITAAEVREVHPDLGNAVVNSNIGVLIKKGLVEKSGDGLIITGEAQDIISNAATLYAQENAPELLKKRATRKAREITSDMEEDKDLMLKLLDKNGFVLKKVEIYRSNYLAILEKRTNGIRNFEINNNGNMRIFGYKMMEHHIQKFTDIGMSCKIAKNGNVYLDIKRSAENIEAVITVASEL

[2] = target: T1, MotA, full length (wild type); experiment: fluorescence polarisation
MotA S80R, full length = target: T2, MotA S80R, full length (bacteriophage T4, UniProt P22915 1-211, S80R); experiment: fluorescence polarisation
T2 sequence (looked up): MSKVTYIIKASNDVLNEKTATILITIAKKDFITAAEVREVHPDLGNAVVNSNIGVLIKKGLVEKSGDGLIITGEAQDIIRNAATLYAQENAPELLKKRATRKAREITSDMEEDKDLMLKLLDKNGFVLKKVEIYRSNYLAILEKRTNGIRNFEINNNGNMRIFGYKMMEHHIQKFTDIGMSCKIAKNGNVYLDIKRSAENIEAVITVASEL

MotA D43K, full length = target: T3, MotA D43K, full length (bacteriophage T4, UniProt P22915 1-211, D43K); experiment: fluorescence polarisation
T3 sequence (looked up): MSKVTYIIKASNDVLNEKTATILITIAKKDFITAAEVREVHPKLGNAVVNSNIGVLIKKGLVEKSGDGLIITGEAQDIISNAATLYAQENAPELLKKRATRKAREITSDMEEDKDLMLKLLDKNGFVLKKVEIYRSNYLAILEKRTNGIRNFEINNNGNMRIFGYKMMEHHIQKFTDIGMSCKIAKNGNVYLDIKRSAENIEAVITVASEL

MotA K59E, full length = target: T4, MotA K59E, full length (bacteriophage T4, UniProt P22915 1-211, K59E); experiment: fluorescence polarisation
T4 sequence (looked up): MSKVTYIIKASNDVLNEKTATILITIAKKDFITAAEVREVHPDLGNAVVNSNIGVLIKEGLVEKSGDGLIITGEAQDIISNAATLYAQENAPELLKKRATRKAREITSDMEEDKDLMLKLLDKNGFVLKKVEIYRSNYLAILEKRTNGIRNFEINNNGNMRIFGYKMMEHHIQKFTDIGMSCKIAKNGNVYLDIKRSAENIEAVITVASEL

MotA D67K, full length = target: T5, MotA D67K, full length (bacteriophage T4, UniProt P22915 1-211, D67K); experiment: fluorescence polarisation
T5 sequence (looked up): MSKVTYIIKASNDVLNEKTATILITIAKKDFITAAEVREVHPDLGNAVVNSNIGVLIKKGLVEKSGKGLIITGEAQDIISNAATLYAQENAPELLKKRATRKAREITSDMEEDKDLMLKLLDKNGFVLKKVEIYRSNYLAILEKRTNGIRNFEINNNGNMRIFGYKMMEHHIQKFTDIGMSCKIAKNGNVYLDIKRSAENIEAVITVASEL

MotA K3E, full length = target: T6, MotA K3E, full length (bacteriophage T4, UniProt P22915 1-211, K3E); experiment: fluorescence polarisation
T6 sequence (looked up): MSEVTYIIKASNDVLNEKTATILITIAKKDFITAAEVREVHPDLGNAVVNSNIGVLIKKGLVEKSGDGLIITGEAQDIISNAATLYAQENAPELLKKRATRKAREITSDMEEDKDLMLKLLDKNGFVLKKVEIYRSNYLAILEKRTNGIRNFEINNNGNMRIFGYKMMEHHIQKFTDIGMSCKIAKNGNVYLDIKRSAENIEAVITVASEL

MotA K28E, full length = target: T7, MotA K28E, full length (bacteriophage T4, UniProt P22915 1-211, K28E); experiment: fluorescence polarisation
T7 sequence (looked up): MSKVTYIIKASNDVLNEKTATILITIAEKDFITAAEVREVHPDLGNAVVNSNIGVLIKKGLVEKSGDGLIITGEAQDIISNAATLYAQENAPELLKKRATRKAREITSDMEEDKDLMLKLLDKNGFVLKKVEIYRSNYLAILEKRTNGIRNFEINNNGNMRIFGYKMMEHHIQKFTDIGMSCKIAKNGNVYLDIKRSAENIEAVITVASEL

MotA Q76R, full length = target: T8, MotA Q76R, full length (bacteriophage T4, UniProt P22915 1-211, Q76R); experiment: fluorescence polarisation
T8 sequence (looked up): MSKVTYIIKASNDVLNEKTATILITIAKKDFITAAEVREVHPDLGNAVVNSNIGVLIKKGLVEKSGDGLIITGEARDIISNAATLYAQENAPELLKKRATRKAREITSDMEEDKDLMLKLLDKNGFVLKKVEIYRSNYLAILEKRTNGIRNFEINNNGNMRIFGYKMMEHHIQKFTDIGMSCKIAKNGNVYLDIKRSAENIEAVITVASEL

AsiA = target: T9, AsiA (bacteriophage T4, UniProt P32267 1-90); experiment: NMR titration
T9 sequence (looked up): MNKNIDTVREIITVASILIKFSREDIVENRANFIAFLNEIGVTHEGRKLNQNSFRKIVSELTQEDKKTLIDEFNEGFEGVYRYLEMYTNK

MotA wild type = target: T10, MotA wild type (bacteriophage T4, UniProt P22915 1-211); experiment: EMSA
T10 sequence: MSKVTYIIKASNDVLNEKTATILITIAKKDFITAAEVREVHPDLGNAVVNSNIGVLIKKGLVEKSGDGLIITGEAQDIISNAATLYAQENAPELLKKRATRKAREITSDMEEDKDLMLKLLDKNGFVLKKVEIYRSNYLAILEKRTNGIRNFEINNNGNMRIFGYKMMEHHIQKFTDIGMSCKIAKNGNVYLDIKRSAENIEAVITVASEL

B1: AsiA/σ4 complex (preformed binary complex of AsiA and σ^70 region 4, residues 533 to 613) (complex, bacteriophage T4 | E. coli)
chain 1: MNKNIDTVREIITVASILIKFSREDIVENRANFIAFLNEIGVTHEGRKLNQNSFRKIVSELTQEDKKTLIDEFNEGFEGVYRYLEMYTNK
chain 2: DSATTESLRAATHDVLAGLTAREAKVLRMRFGIDMNTDYTLEEVGKQFDVTRERIRQIEAKALRKLRHPSRSEVLRSFLDD
[1]
  binding result: binds

## {FITC}-PSRSEVLRSFLDD (peptide, UniProt P00579 601-613, looked up) [fluorescein-tagged σ4-H5 peptide (σ^70 residues 601-613)]
[2]
  Kd: 15.9 ± 1.3 µM
MotA S80R, full length
  Kd: 44.7 ± 5 µM
MotA D43K, full length
  Kd: 12 ± 1 µM
MotA K59E, full length
  Kd: 10 ± 1 µM
MotA D67K, full length
  Kd: 24.3 ± 0.1 µM
MotA K3E, full length
  Kd: > 300 µM
MotA K28E, full length
  Kd: > 300 µM
MotA Q76R, full length
  Kd: 39.1 ± 5 µM

B2: σ4 (σ^70 region 4, residues 533 to 613) (domain or fragment, E. coli, UniProt P00579 533-613, looked up)
chain: DSATTESLRAATHDVLAGLTAREAKVLRMRFGIDMNTDYTLEEVGKQFDVTRERIRQIEAKALRKLRHPSRSEVLRSFLDD
[1]
  binding result: binds
AsiA
  binding result: binds

B3: 21 bp MotA box DNA (dsDNA)
DNA 1: GAATTATTTGCTTTAGATTAC
DNA 2: GTAATCTAAAGCAAATAATTC
MotA wild type
  Kd: ~600 nM
